Laboratory results published in patent US20180236028.

System: Reelin of primary cortical neurons (endogenous, cellular and supernatant fractions)

Substance: MMP-9 (active; Calbiochem, PF140)
- Reelin processing in primary neurons, Western blot: application of MMP-9 to primary neurons led to a specific accumulation of the 180 kDa fragment in cells and MMP-9 inhibition for 24 hours led to a dramatic increase in full-length cellular Reelin and decrease in cellular 180 kDa Reelin
